Positions count from the first letter of the chain named.
B1: IgG1-F1312 (antibody)
heavy: QVQLQESGPGLVKPSETLSLTCAVSGHSISHDHAWSWVRQPPGEGLEWIGFISYSGITNYNPSLQGRVTISRDNSKNTLYLQMNSLRAEDTAVYYCARSLARTTAMDYWGEGTLVTVSSASTKGPSVFPLAPSSKSTSGGTAALGCLVKDYFPEPVTVSWNSGALTSGVHTFPAVLQSSGLYSLSSVVTVPSSSLGTQTYICNVNHKPSNTKVDKKVEPKSCDKTHTCPPCPAPELRGGPKVFLFPPKPKDTLYISRTPEVTCVVVDVSHEDPEVKFNWYVDGVEVHNAKTKPREEQYNSTYRVVSVLTVLHQDWLNGKEYKCKVSNKALPAPIEKTISKAKGQPREPQVYTLPPSRDELTKNQVSLTCLVKGFYPSDIAVEWESNGQPENNYKTTPPVLDSDGSFFLYSKLTVDKSRWQQGNLFLCSVMHEALDYHVTQKSLSLSP
light: not shown
notes: EU numbering; copies: 2 + 2
B2: IgG1-F1375 (antibody)
heavy: B1 heavy with S256T, L424V, L426S, D435H
light: not shown
notes: EU numbering; copies: 2 + 2
B3: IgG1-F1321 (antibody)
heavy: B1 heavy with S256T, L424V, L426S, D435H, Q440K, S442E
light: not shown
notes: EU numbering; copies: 2 + 2
B4: IgG1-F1354 (antibody)
heavy: B1 heavy with L424V, L426S, V438F, Q440K, S442E
light: not shown
notes: EU numbering; copies: 2 + 2
B5: IgG1-F1320 (antibody)
heavy: B1 heavy with S256T, L424V, L426S, D435H, Q440R, S442D
light: not shown
notes: EU numbering; copies: 2 + 2
B6: IgG1-F1344 (antibody)
heavy: B1 heavy with L424V, L426S, D435H, V438T, Q440K, S442E
light: not shown
notes: EU numbering; copies: 2 + 2
B7: IgG1-F1334 (antibody)
heavy: B1 heavy with G238R, L424V, L426S, D435H, Q440K, S442D
light: not shown
notes: EU numbering; copies: 2 + 2
B8: IgG1-F1328 (antibody)
heavy: B1 heavy with G238R, L424V, L426S, D435H, Q440R, S442E
light: not shown
notes: EU numbering; copies: 2 + 2
B9: IgG1-F1374 (antibody)
heavy: B1 heavy with S256T, T258E, L424V, L426S, V438F, Q440R, S442E
light: not shown
notes: EU numbering; copies: 2 + 2
B10: IgG1-F1313 (antibody)
heavy: B1 heavy with L424V, L426S, Q440A, S442A
light: not shown
notes: EU numbering; copies: 2 + 2
B11: IgG1-F1357 (antibody)
heavy: B1 heavy with S256T, L424V, L426S, D435H, V438T, Q440R, S442E
light: not shown
notes: EU numbering; copies: 2 + 2
B12: IgG1-F1359 (antibody)
heavy: B1 heavy with S256T, L424V, L426S, D435H, V438F, Q440R, S442E
light: not shown
notes: EU numbering; copies: 2 + 2
B13: IgG1-F1351 (antibody)
heavy: B1 heavy with L424V, L426S, D435H, V438F, Q440R, S442E
light: not shown
notes: EU numbering; copies: 2 + 2
B14: IgG1-F1329 (antibody)
heavy: B1 heavy with G238R, S256T, L424V, L426S, D435H, Q440R, S442E
light: not shown
notes: EU numbering; copies: 2 + 2
B15: IgG1-F1338 (antibody)
heavy: B1 heavy with T258E, L424V, L426S, Q440K, S442E
light: not shown
notes: EU numbering; copies: 2 + 2
B16: IgG1-F1373 (antibody)
heavy: B1 heavy with S256T, T258E, L424V, L426S, V438F, Q440K, S442E
light: not shown
notes: EU numbering; copies: 2 + 2
B17: IgG1-F1363 (antibody)
heavy: B1 heavy with S256T, L424V, L426S, V438F, Q440R, S442E
light: not shown
notes: EU numbering; copies: 2 + 2
B18: IgG1-F1347 (antibody)
heavy: B1 heavy with G238R, T258E, L424V, L426S, D435H, Q440K, S442E
light: not shown
notes: EU numbering; copies: 2 + 2
B19: IgG1-F1326 (antibody)
heavy: B1 heavy with L236A, R237A, K241S, T252V, T309Q, V310P, Q313A, L424V, L426S, D435H
light: not shown
notes: copies: 2 + 2
B20: IgG1-F1336 (antibody)
heavy: B1 heavy with G238R, T258E, L424V, L426S, D435H, Q440K, S442D
light: not shown
notes: EU numbering; copies: 2 + 2
B21: IgG1-F1342 (antibody)
heavy: B1 heavy with T258E, L424V, L426S, D435H, V438T, Q440K, S442E
light: not shown
notes: EU numbering; copies: 2 + 2
B22: IgG1-F1352 (antibody)
heavy: B1 heavy with L424V, L426S, V438T, Q440K, S442E
light: not shown
notes: EU numbering; copies: 2 + 2
B23: IgG1-F1346 (antibody)
heavy: B1 heavy with G238R, S256T, L424V, L426S, D435H, Q440K, S442E
light: not shown
notes: EU numbering; copies: 2 + 2
B24: IgG1-F1327 (antibody)
heavy: QVQLQESGPGLVKPSETLSLTCAVSGHSISHDHAWSWVRQPPGEGLEWIGFISYSGITNYNPSLQGRVTISRDNSKNTLYLQMNSLRAEDTAVYYCARSLARTTAMDYWGEGTLVTVSSASTKGPSVFPLAPSSKSTSGGTAALGCLVKDYFPEPVTVSWNSGALTSGVHTFPAVLQSSGLYSLSSVVTVPSSSLGTQTYICNVNHKPSNTKVDKKVEPKSCDKTHTCPPCPAPEAAGGPSVFLFPPKPKDVLYISRTPEVTCVVVDVSHEDPEVKFNWYVDGVEVHNAKTKPREEQYASTYRVVSVLQPLHADWLNGKEYKCKVSNKALPAPIEKTISKAKGQPREPQVYTLPPSRDELTKNQVSLTCLVKGFYPSDIAVEWESNGQPENNYKTTPPVLDSDGSFFLYSKLTVDKSRWQQGNVFSCSVMHEALHYHVTQKSLSLSP
light: not shown
notes: copies: 2 + 2
B25: IgG1-F1314 (antibody)
heavy: B1 heavy with L424V, L426S, Q440L, S442L
light: not shown
notes: EU numbering; copies: 2 + 2
B26: IgG1-F1337 (antibody)
heavy: B1 heavy with T258E, L424V, L426S, D435H, Q440K, S442E
light: not shown
notes: EU numbering; copies: 2 + 2
B27: IgG1-F1366 (antibody)
heavy: B1 heavy with T258E, L424V, L426S, V438F, Q440K, S442E
light: not shown
notes: EU numbering; copies: 2 + 2
B28: IgG1-F1345 (antibody)
heavy: B1 heavy with G238R, L424V, L426S, D435H, Q440K, S442E
light: not shown
notes: EU numbering; copies: 2 + 2
B29: IgG1-F1368 (antibody)
heavy: B1 heavy with S256T, T258E, L424V, L426S, D435H, V438F, Q440K, S442E
light: not shown
notes: EU numbering; copies: 2 + 2
B30: IgG1-F1322 (antibody)
heavy: B1 heavy with S256T, L424V, L426S, Q440R, S442D
light: not shown
notes: EU numbering; copies: 2 + 2
B31: IgG1-F1343 (antibody)
heavy: B1 heavy with S256T, T258E, L424V, L426S, D435H, V438T, Q440K, S442E
light: not shown
notes: EU numbering; copies: 2 + 2
B32: IgG1-F1358 (antibody)
heavy: B1 heavy with S256T, L424V, L426S, D435H, V438F, Q440K, S442E
light: not shown
notes: EU numbering; copies: 2 + 2
B33: IgG1-F1376 (antibody)
heavy: B1 heavy with S256T, T258E, L424V, L426S, D435H
light: not shown
notes: EU numbering; copies: 2 + 2
B34: IgG1-F1319 (antibody)
heavy: B1 heavy with R237L, K241S, L330Y, L424V, L426S, D435H, V438Y
light: not shown
notes: EU numbering; copies: 2 + 2
B35: IgG1-F1323 (antibody)
heavy: B1 heavy with S256T, L424V, L426S, Q440K, S442E
light: not shown
notes: EU numbering; copies: 2 + 2
B36: IgG1-F1341 (antibody)
heavy: B1 heavy with S256T, L424V, L426S, D435H, V438T, Q440K, S442E
light: not shown
notes: EU numbering; copies: 2 + 2
B37: IgG1-F1353 (antibody)
heavy: B1 heavy with L424V, L426S, V438T, Q440R, S442E
light: not shown
notes: EU numbering; copies: 2 + 2
B38: IgG1-F1362 (antibody)
heavy: B1 heavy with S256T, L424V, L426S, V438F, Q440K, S442E
light: not shown
notes: EU numbering; copies: 2 + 2
B39: IgG1-F1371 (antibody)
heavy: B1 heavy with S256T, T258E, L424V, L426S, Q440R, S442E
light: not shown
notes: EU numbering; copies: 2 + 2
B40: IgG1-F1331 (antibody)
heavy: B1 heavy with G238R, S256T, T258E, L424V, L426S, D435H, Q440R, S442E
light: not shown
notes: EU numbering; copies: 2 + 2
B41: IgG1-F1370 (antibody)
heavy: B1 heavy with S256T, T258E, L424V, L426S, Q440K, S442E
light: not shown
notes: EU numbering; copies: 2 + 2
B42: IgG1-F1367 (antibody)
heavy: B1 heavy with S256T, T258E, L424V, L426S, D435H, V438T, Q440R, S442E
light: not shown
notes: EU numbering; copies: 2 + 2
B43: IgG1-F1361 (antibody)
heavy: B1 heavy with S256T, L424V, L426S, V438T, Q440R, S442E
light: not shown
notes: EU numbering; copies: 2 + 2
B44: IgG1-F1365 (antibody)
heavy: B1 heavy with T258E, L424V, L426S, V438T, Q440K, S442E
light: not shown
notes: EU numbering; copies: 2 + 2
B45: IgG1-F1372 (antibody)
heavy: B1 heavy with S256T, T258E, L424V, L426S, V438T, Q440R, S442E
light: not shown
notes: EU numbering; copies: 2 + 2
B46: IgG1-F1330 (antibody)
heavy: B1 heavy with G238R, T258E, L424V, L426S, D435H, Q440R, S442E
light: not shown
notes: EU numbering; copies: 2 + 2
B47: IgG1-F1360 (antibody)
heavy: B1 heavy with S256T, L424V, L426S, V438T, Q440K, S442E
light: not shown
notes: EU numbering; copies: 2 + 2
B48: IgG1-F1377 (antibody)
heavy: B1 heavy with T258E, L424V, L426S, D435H
light: not shown
notes: EU numbering; copies: 2 + 2
B49: IgG1-F1349 (antibody)
heavy: B1 heavy with L424V, L426S, D435H, V438T, Q440R, S442E
light: not shown
notes: EU numbering; copies: 2 + 2
B50: IgG1-F1350 (antibody)
heavy: B1 heavy with L424V, L426S, D435H, V438F, Q440K, S442E
light: not shown
notes: EU numbering; copies: 2 + 2
B51: IgG1-F1348 (antibody)
heavy: B1 heavy with G238R, S256T, T258E, L424V, L426S, D435H, Q440K, S442E
light: not shown
notes: EU numbering; copies: 2 + 2
B52: IgG1-F1355 (antibody)
heavy: B1 heavy with L424V, L426S, V438F, Q440R, S442E
light: not shown
notes: EU numbering; copies: 2 + 2

molecular target: T1, soluble human FcRn complexed with β2-microglobulin (human, UniProt P61769 21-119, limits assumed); experiment: Biacore SPR, pH 7.0;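 note: test antibodies captured on a Protein L chip with human FcRn flowed over as analyte, KD obtained as the ratio of dissociation to association rate constants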
T1 construct: also called hFcRn
T1 sequence (chain, as listed by the source limits assumed, chain 1 of 2): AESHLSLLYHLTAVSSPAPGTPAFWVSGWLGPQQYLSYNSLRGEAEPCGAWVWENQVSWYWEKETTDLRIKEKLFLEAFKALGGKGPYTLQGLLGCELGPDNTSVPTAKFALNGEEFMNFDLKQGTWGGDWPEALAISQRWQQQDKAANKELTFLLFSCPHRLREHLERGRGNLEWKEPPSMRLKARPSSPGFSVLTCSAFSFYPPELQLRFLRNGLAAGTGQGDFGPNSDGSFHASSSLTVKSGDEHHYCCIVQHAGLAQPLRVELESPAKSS
T1 sequence (P61769 21-119 limits assumed, chain 2 of 2): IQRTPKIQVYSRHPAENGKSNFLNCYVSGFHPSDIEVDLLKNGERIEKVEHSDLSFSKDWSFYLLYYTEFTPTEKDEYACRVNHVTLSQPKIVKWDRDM
Method: A kinetic analysis of binding between human FcRn and the aforementioned antibodies was carried out using the BIACORE™ T100 or T200 surface plasmon resonance system (GE Healthcare). The antibodies being tested were captured on the CM4 Sensor Chip (GE Healthcare) on which a suitable amount of Protein L (ACTIGEN® protein (Alltech)) was suitably immobilized by amine coupling. Next, diluted human FcRn and a running buffer used as a blank were injected to allow the human FcRn to interact with the antibody captured on the sensor chip. A buffer consisting of 50 mmol/L sodium phosphate, 150 mmol/L NaCl and 0.05% (w/v) polysorbate 20 (Tween 20®) (pH 7.0 or pH 7.4) was used for the running buffer, and each buffer was also used to dilute the human FcRn. 10 mmol/L glycine-HCl (pH 1.5) was used to regenerate the sensor chip. All measurements of binding were carried out at 25° C. The KD(M) of each antibody to human FcRn was calculated based on kinetics parameters, i.e., the association rate constant ka (1/Ms) and the dissociation rate constant kd (1/s) calculated from a sensorgram obtained by the measurement. The BIACORE™ T100 or T200 Evaluation Software (GE Healthcare) was used to calculate each parameter.

In order of falling Kd:
1. B37  433 nM
2. B6  396 nM
3. B22  393 nM
4. B43  352 nM
5. B49  336 nM
6. B36  322 nM
7. B44  314 nM
8. B47  312 nM
9. B11  281 nM
10. B34  267 nM
11. B21  251 nM
12. B52  247 nM
13. B4  229 nM
14. B45  228 nM
15. B25  227 nM
16. B31  201 nM
17. B17  190 nM
18. B1  179 nM
19. B42  179 nM
20. B10  177 nM
21. B13  162 nM
22. B30  160 nM
23. B8  152 nM
24. B35  149 nM
25. B38  141 nM
26. B14  129 nM
27. B12  128 nM
28. B5  122 nM
29. B9  120 nM
30. B50  118 nM
31. B27  117 nM
32. B39  109 nM
33. B28  105 nM
34. B7  104 nM
35. B15  104 nM
36. B2  103 nM
37. B3  103 nM
38. B46  103 nM
39. B41  91.4 nM
40. B33  90.9 nM
41. B32  90.7 nM
42. B16  86.7 nM
43. B23  85.9 nM
44. B48  82.7 nM
45. B40  77.5 nM
46. B26  74.1 nM
47. B20  71.8 nM
48. B18  71.4 nM
49. B51  55.2 nM
50. B29  54.9 nM
51. B24  14.1 nM
52. B19  10.9 nM
